# Patent US20230250178A1
# B1: 433H (antibody, from another filing, V domains shown)
# VH: EVQLVETGGGLVQPKGSLRLSCAASGFPFNTFAMNWVRQAPGKGLEWLARIRSKSNNYATYYADSVKDRFTISRDDSRRMLYLLMNNVKFEDTAIYYCVRGKENNYGYAMDYWGQGTSVTVSS
# VL: DIVMTQAAPSVPVTPGESVSISCRSSQSLLHSNGNTYLYWFLQRPGQSPQLLIYRMSNLASGVPDRFSGSGSGTAFTLRISRVEAEDVGVYYCMQHLEYPFTFGIGTKLELKR
# Columns and labels:
# human CCR8 (human) [1] = target: human CCR8 (human) (UniProt P51685); assay: cell-based or functional assay
# human CCR8 (human) [2] = target: human CCR8 (human) (UniProt P51685); assay: FACS, BODIPY-labelled antibody, HuT78
# [3] = target: cynomolgus CCR8 (cynomolgus); assay: FACS, CHO-cynoCCR8
# human CCR8 (human) [4] = target: human CCR8 (human) (UniProt P51685); assay: FACS, CHO-hCCR8
# Chain of cynomolgus CCR8 (cynomolgus) (O97665 other isoform, or with tags, fused parts or gaps): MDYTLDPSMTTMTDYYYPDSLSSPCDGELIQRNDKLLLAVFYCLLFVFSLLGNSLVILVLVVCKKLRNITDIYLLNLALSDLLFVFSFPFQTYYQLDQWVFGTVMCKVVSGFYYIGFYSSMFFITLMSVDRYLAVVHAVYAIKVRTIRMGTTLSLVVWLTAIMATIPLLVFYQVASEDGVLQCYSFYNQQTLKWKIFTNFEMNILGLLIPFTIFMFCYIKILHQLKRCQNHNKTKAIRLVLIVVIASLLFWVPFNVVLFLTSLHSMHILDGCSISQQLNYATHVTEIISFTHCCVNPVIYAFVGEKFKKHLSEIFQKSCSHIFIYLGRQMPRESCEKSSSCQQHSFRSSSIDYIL
binder,measurement,setting,value
B1,"IC50, Ca flux assay",human CCR8 (human) [1],1.3 nM
same,"IC50, inhibition of CCL1 induced β-arrestin signaling",human CCR8 (human) [1],0.78 nM
same,FACS HuT78 [MFI],human CCR8 (human) [2],50 MFI
same,EC50,[3],12.1 nM
same,EC50,human CCR8 (human) [4],2.8 nM
